Measurements published in US20240343826A1, “Compositions and Methods for Targeting Cancer Stem Cells” (Seagen Inc., priority 2015, published 2024).

Columns and labels:
OV90 cells = assay: MTT cell viability assay, antibody and chemotherapeutic agent treatment; format: cell-based, human; conditions: 72 to 144 hours, S3F 0.033 nM-500 nM; for cell viability (MTT assay): STn+CD133+ OV90 and CSC sub-fractions, normalized to untreated control
Protocol: STn+CD133+OV90 and CSC sub-fractions were treated with unconjugated anti-STn antibody S3F [0.033 nM-500 nM] or with different concentrations of chemotherapeutic agents paclitaxel and/or carboplatin. OV90 cells were cultured for 72 to 144 hours with the indicated concentrations and cell viability was analyzed by MTT assay (FIG. 2). All values were normalized to the untreated control.

CSC tumors = assay: Anti-CSC activity in vivo, tumors in NOD/SCID mice
Protocol: The growth conditions of CSC subfractions in NOD/SCID mice is established and analyzed. Anti-STn antibodies are administered to mice as conjugates with chemotherapy and treated mice are tested for toxicity and efficacy through mouse observations and weights.
An equivalent amount of serially-diluted positive or negative subfraction cells (i.e., 1×10^5, 1×10^4, and 1×10^3/mouse; 2-8 mice/group) are injected subcutaneously (s.c.) into NOD/SCID mice, to compare their potential to generate tumors. Following injection of tumor cells, the mice are monitored daily for evidence of tumor formation and general health.
For treatment, tumors may be generated in mice from up to four sources: 1) primary ovarian tumors; 2) xenograft tumors previously established in NOD/SCID mice; 3) cryopreserved xenograft tumor tissue; or 4) human ovarian cancer cell lines or isolated cell line subfractions based on CD133/STn expression. For each tumor type, once a sufficient number of mice have tumors ranging from 200-300 mm^3 in volume, the mice are randomized into 4 groups (n=8-14 mice/group) such that the mean group tumor volumes are essentially equivalent. […]
Tumors are then measured twice weekly with calipers [tumor volume=(Lmm×Wmm×[…])/2]. […]

[1] = test system: STn in ovarian cancer tissue; assay: Immunohistochemical staining of ovarian cancer tissue sections; format: binding; conditions: S3F as primary antibody; peroxidase-based secondary detection; compared to normal IgG and no primary antibody
Description: Tissue sections from ovarian cancer tissue were subjected to immunohistochemical staining to identify cells expressing STn using S3F antibody as a primary antibody. Bound antibody was detected using a peroxidase-based secondary detection system.

## N.N.O=C([O-])C1(C(=O)[O-])CCC1.[Pt+2] [carboplatin, reference compound]
OV90 cells
  cell viability (MTT assay): Cell viability was reduced

## CC(=O)O[C@H]1C(=O)[C@@]2(C)[C@H]([C@H](OC(=O)c3ccccc3)[C@]3(O)C[C@H](OC(=O)[C@H](O)[C@@H](NC(=O)c4ccccc4)c4ccccc4)C(C)=C1C3(C)C)[C@]1(OC(C)=O)CO[C@@H]1C[C@@H]2O [paclitaxel, reference compound]
OV90 cells
  cell viability (MTT assay): Cell viability was reduced

B1: S3F: anti-STn IgG2a antibody combining 3F1 variable domains with IgG2a constant domains; heavy chain SEQ ID NO: 5, light chain SEQ ID NO: 6 (antibody)
heavy: QVQLQQSDAELVKPGASVKISCKASGYTFTDHAIHWVKQKPEQGLDWIGYISPGNGDIKYNEKFKDKVTLTADKSSSTACMHLNSLTSEDSAVYFCKRSLLALDYWGQGTTLTVSSAKTTAPSVYPLAPVCGDTTGSSVTLGCLVKGYFPEPVTLTWNSGSLSSGVHTFPAVLQSDLYTLSSSVTVTSSTWPSQSITCNVAHPASSTKVDKKIEPRGPTIKPCPPCKCPAPNLLGGPSVFIFPPKIKDVLMISLSPIVTCVVVDVSEDDPDVQISWFVNNVEVHTAQTQTHREDYNSTLRVVSALPIQHQDWMSGKEFKCKVNNKDLPAPIERTISKPKGSVRAPQVYVLPPPEEEMTKKQVTLTCMVTDFMPEDIYVEWTNNGKTELNYKNTEPVLDSDGSYFMYSKLRVEKKNWVERNSYSCSVVHEGLHNHHTTKSFSRTPGK
light: DIVMTQSHKFMSTSVGDRVSITCKASQDVGTNIAWYQQKPGRSPKVLIYSASTRHTGVPDRFTGSGSGTDFTLTISNVQSEDLTDYFCQQYSSFPLTFGVGTKLELKRADAAPTVSIFPPSSEQLTSGGASVVCFLNNFYPKDINVKWKIDGSERQNGVLNSWTDQDSKDSTYSMSSTLTLTKDEYERHNSYTCEATHKTSTSPIVKSFNRNEC
OV90 cells; OV90 cells
  dose dependence of effect on cell viability: most effective at higher doses tested
OV90 cells
  cell viability (MTT assay): Cell viability was reduced
CSC tumors
  efficacy in combination with standard chemotherapy agents used for ovarian cancer: increases the efficacy of the antibody
CSC tumors; i.p. once weekly
  growth of CSC tumors: capable of delaying the growth of or eradicating CSC tumors
[1]
  immunohistochemical staining: Numerous cells showed positive staining
